Experimental data: patent US20230391854A1 (Innovent, published 2023)

Experiments:
[1] = target: Biotin-ncov RBD (KACTUS, COV-VM4BDB) (SARS-CoV-2, UniProt P0DTC2 319-537); assay: ELISA blocking assay: antibody titrated from 900 nM, blocks biotin-RBD (200 ng/mL) binding to coated ACE2-Fc
[2] = target: SARS-CoV-2 euvirus S protein (SARS-CoV-2, UniProt P0DTC2 14-1273); assay: cell-based or functional assay

Binder | IC50 [1] [nM] | EC50, neutralization of SARS-CoV-2 euvirus infection of VERO-E6 cells (CPE, day 4) [2] [mg/L]
P15-16 (antibody, V domains shown, also called candidate antibody molecule P15-16) VH: QVQLVESGGGLVQPGRSLTLSCAASGFTFDDYAMHWVRQAPGKGLEWVSGISWNSGTIDYADSVKGRFTISRDNAKNSLYLQMNSLRAEDTALYYCATLPRERAYSGYDRIFYTIDVWGQGTTVTVSS VL: not shown | 1.39 | –
P14-37 (antibody, V domains shown, also called candidate antibody molecule P14-37) VH: EVQLVESGGGLVKPGGSLRLSCAASGFTFSNAWMSWVRQAPGKGLEWVGRIKRNSDGGTTDHAAPVTGRFIISRDDSKNTLYLQMNSLRTEDTAVYYCTTDLDTVVRRVVITDHDAFDIWGQGTMVTVSS VL: DIQMTQSPSSLSASVGDRVTITCRASQSISSFLNWYQQKAGKAPKLLIYAASSLQSGVPSRFSGSGSGTDFSLTISNLQPEDFATYYCQQSYSTPSITFGQGTRLEIK | 1.14 | –
P3-11 (antibody, V domains shown, also called candidate antibody molecule P3-11) VH: QVQLVESGGGLVQPGGSLRLSCAASGITVSSNYMSWVRQAPGKGLEWVSVIYSGGSTFYADPVKGRLTISRDNSKNTLYLQMNSVRVEDTAVYYCARGEGWELPFDYWGQGALVTVSS VL: QSALTQPPSASGSPGQSVTISCTGTSSDVGGNKYVSWYQQHPGKAPKLIIYEVSKRPSGVPDRFSGSKSGNTASLTVSGLQAEDEADYHCSSYAGSNNLVFGGGTKLTVL | 1.1 | 0.195
P23-29 (antibody, V domains shown, also called candidate antibody molecule P23-29) VH: QVQLQESGPGLVKPSETLSLTCTVSGDSISSSTYYWGWIRQPPGKGLEWIGSMYYGRSTYYNPSLKSRVTVSVDTSKNQLSLKVSSVTAADTAVYYCARHLGGVDYWGQGTLVTVSS VL: DIQMTQSPSSLSASVGDRVTITCRASQGISNSLAWYQQEPGKAPKLLLYAASTLESGVPSRFSGSGSGADSTLTISSLQPEDFATYYCQQYYSASALTFGGGTKVEIK | 1.2 | 0.0488
P14-44 (antibody, V domains shown, also called candidate antibody molecule P14-44) VH: QVQLVQSGAEVKKPGASVKVSCKASGYIFTSYSMHWVRQAPGQGLEWMGTIKPSDDSTNYAQKFQGRVSMTRDTSTSTVYMELSSLRYEDTAVYYCAREARGYYDRSGYYHPGYFDYWGQGTLVTVSS VL: QSVLTQPASVSGSPGQSITISCTGTSSDVGGYNFVSWYQQHPGKAPKLMIYEVSDRPSGVSSRFSGSKSGNTASLTISGLQAEDEADYYCFSYTTSTTWVFGGGTKLTVL | 0.863 | 0.708
P5-22 (antibody, V domains shown, also called candidate antibody molecule P5-22) VH: EVQLVESGGGLVKPGGSLRLSCAASGFTFRDYDIIWIRQAPGKGLEWVSYISRSGSTIYYSDSVRGRFTISRDNAKNSVYLQMNSLRAEDTAVYYCARDFGFEGPRMDVWGQGTTVTVSS VL: DIQMTQSPSSLSASVGDRVTITCQASQDIKNYLNWYQQKPGKAPKLLIYDASNLETGVPSRFSGSGSGTDFTFTISSLQPEDIATYYCQQFDNLPITFGQGTRLEIK | 1.08 | 0.00657
P10-20 (antibody, V domains shown, also called candidate antibody molecule P10-20) VH: QVQLVESGGGLVKPGGSLRLSCAASGFTFSDYYMSWIRQAPGKGLEWVSYISISSTYTNYADSVKGRFTISRDNAKNSLYLQMNSLRAEDTAVYYCVIAAAGKGHYYYGMDVWGQGTTVTVSS VL: not shown | 0.957 | ~0.0752
